These results are taken from publication PMC12894433.

This data set deals with dCas9 (EnGen Spy dCas9, SNAP-tag) (Streptococcus pyogenes). Briefly: single-molecule fluorescence co-localization. The note with it: NEBuffer r3.1 adjusted to 1 mM MgCl2; single-molecule: 17 nM YOYO-1, 1 ng DNA, about 1 nM dCas9-RNA, 15 min at 37 C; EMSA: 1 mM DTT, 1% agarose 1x TAE gel. On the technique in general: In EMSA bound probe runs differently from free probe, usually more slowly.

“AAV2-ITR crRNA:tracrRNA-ATTO550 guide + plasmid lacking the target site (negative)”: the binding signal (% co-localization) amounted to 23.

Take “AAV2-ITR crRNA:tracrRNA-ATTO550 guide + pAAV-U6-sgRNA-CMV-GFP plasmid (positive)”: the binding signal (% co-localization) was found to be 51.
